Molecular target: D4 self-association region of P6 (amino acids 414-520), in pEG202 (Cauliflower mosaic virus isolate CM1841)
Assay: two-hybrid

Full-length P6 with the D3b mutation V324A, in pJG4-5 (natural protein)
fold less β-galactosidase activity than the wild type: 9 fold
